The values that follow come from publication PMC9638930, “Structural basis of flagellar motility regulation by the MogR repressor and the GmaR antirepressor in Listeria monocytogenes” (Nucleic Acids Research, 2022).

Data set [1] has as its target MogRD^S114A/Q117A/N118A/K122A (Listeria monocytogenes) (UniProt P0DJO8). In words: ELISA; wells coated with MogR protein (20 nM); three-fold serially diluted His6-tagged GmaRFL, 2 h at 18°C; detected with anti-His6 antibody. A general note: An ELISA detects its analyte on a solid surface through an enzyme-linked reagent.
For data set [2], the target named is MogRD with individual mutation of the N154, I155 and F156 residues to alanine. Described as above.
For data set [3], the target named is His6-tagged GmaRFL protein. Put plainly: ELISA.
Data set [4] has as its target T1, MogR DBD protein (MogRD; residues 1–162) (Listeria monocytogenes, UniProt P0DJO8 1-162).
T1 construct: Monomer by gel filtration; also called MogR^GmaR; source: E. coli BL21 (DE3), purified (Ni-NTA, Mono S or Mono Q ion exchange); for the crystal co-purified with GmaR_(231-637)
T1 sequence: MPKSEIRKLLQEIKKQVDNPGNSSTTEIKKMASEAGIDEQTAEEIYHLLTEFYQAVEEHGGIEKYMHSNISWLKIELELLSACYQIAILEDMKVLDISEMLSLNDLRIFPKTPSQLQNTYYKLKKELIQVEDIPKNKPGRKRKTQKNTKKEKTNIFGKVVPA
In words: ITC; MicroCal iTC200, 18°C; 250 μM MogRD injected into 25 μM GmaRFL or GmaR_(141-637); 20 mM Hepes pH 7.4, 150 mM NaCl, 5 mM βME; one-site binding model. The following applies: both partners purified. (In general: Isothermal titration calorimetry measures the heat released or taken up as one component is titrated into another.)

For data set [5], the target named is full-length GmaR (GmaRFL; residues 1–637) (Listeria monocytogenes). In words: native gel or EMSA; native PAGE (6% gel, pH 8.8, Coomassie); GmaR incubated with MogR at a defined molar ratio at 18°C for 30 min in 20 mM Hepes pH 7.4, 150 mM NaCl, 5 mM βME. Background: In EMSA bound probe runs differently from free probe, usually more slowly.
For data set [6] the target is unchanged. Put plainly: SEC; Superdex 200 10/300 at room temperature, 20 mM Hepes pH 7.4, 150 mM NaCl, 5 mM βME; GmaRFL, MogRD and their 1:1 molar mixture.
The target is the same in data set [7]. In words: ITC; MicroCal iTC200, 18°C; 250 μM MogRD injected into 25 μM GmaRFL or GmaR_(141-637); 20 mM Hepes pH 7.4, 150 mM NaCl, 5 mM βME; one-site binding model.
For data set [8], the target named is T2, MogRD Site1-Ala (Listeria monocytogenes, UniProt P0DJO8 1-162, K152A;T153A;N154A;I155A;F156A). Put plainly: EMSA; 20 mM Hepes pH 7.4, 150 mM NaCl, 5 mM bME; FP room temperature with 1 nM dsDNA; EMSA 18 C 30 min (GmaR inhibition assays at room temperature, 10 min, 2:1 MogR:dsDNA). Particulars: protein: recombinant; tags: N-terminal His6, thrombin site; chain copies: 2; label: none (ethidium bromide stain); blunt.

Data set [9] addresses T3, MogR1-151 (Listeria monocytogenes, UniProt P0DJO8 1-151).
T3 sequence: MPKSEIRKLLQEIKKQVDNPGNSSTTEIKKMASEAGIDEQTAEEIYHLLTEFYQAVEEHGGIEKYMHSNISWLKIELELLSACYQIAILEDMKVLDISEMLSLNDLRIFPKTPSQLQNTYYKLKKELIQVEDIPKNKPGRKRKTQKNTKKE
The data set is described as above. The following applies: protein: recombinant; tags: N-terminal His6, thrombin site; label: none (ethidium bromide stain); blunt.

Data set [10] concerns the target T4, MogRD (MogR DNA-binding domain) (Listeria monocytogenes, UniProt P0DJO8 1-162).
T4 sequence: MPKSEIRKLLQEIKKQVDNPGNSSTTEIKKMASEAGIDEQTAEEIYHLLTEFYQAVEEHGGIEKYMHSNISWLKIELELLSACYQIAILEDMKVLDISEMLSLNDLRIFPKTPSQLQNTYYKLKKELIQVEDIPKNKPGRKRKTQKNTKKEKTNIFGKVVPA
In words: EMSA; with GmaRFL pretreated at 37 C 15 min; inhibition lost; 20 mM Hepes pH 7.4, 150 mM NaCl, 5 mM bME; FP room temperature with 1 nM dsDNA; EMSA 18 C 30 min (GmaR inhibition assays at room temperature, 10 min, 2:1 MogR:dsDNA). The following applies: protein: recombinant; tags: N-terminal His6, thrombin site; label: none (ethidium bromide stain); blunt.

The target in another data set is MogRD SiteMIG-Ala (Listeria monocytogenes, UniProt P0DJO8 1-162, R140A;K141A;R142A;K143A;T144A). Put plainly: EMSA or FP (Supplementary Fig S9; method and label not given in material); 20 mM Hepes pH 7.4, 150 mM NaCl, 5 mM bME; FP room temperature with 1 nM dsDNA; EMSA 18 C 30 min (GmaR inhibition assays at room temperature, 10 min, 2:1 MogR:dsDNA). Particulars: protein: recombinant; tags: N-terminal His6, thrombin site; chain copies: 2; label: none (ethidium bromide stain); blunt.

Data set [11] deals with T4, MogRD (MogR DNA-binding domain). Put plainly: FP; 20 mM Hepes pH 7.4, 150 mM NaCl, 5 mM bME; FP room temperature with 1 nM dsDNA; EMSA 18 C 30 min (GmaR inhibition assays at room temperature, 10 min, 2:1 MogR:dsDNA). The following applies: protein: recombinant; tags: N-terminal His6, thrombin site; blunt.
In data set [12] the target is T3, MogR1-151. The data set is described as above. The following applies: protein: recombinant; tags: N-terminal His6, thrombin site; blunt.
The target of data set [13] is T2, MogRD Site1-Ala. In words: FP; 100 nM MogR with GmaRFL; no inhibition; 20 mM Hepes pH 7.4, 150 mM NaCl, 5 mM bME; FP room temperature with 1 nM dsDNA; EMSA 18 C 30 min (GmaR inhibition assays at room temperature, 10 min, 2:1 MogR:dsDNA). The following applies: protein: recombinant; tags: N-terminal His6, thrombin site; chain copies: 2; blunt.

“His6-tagged GmaRFL protein (natural protein)” yielded a fold lower GmaRFL-binding activity than MogRD in data set [1] of 2 fold. In data set [2], this molecule came in with a fold reduction of GmaRFL-binding activity against MogRD of 5 to 6 fold.
For orientation: EC50 means the concentration that produces a half-maximal response. “MogR DBD protein (MogRD; residues 1–162) (from UniProt P0DJO8) F156A”: in [3] (parent: 220 ± 81), the concentration for a half-maximal effect (EC50) worked out at 1420 nM.
On to “MogR DBD protein (MogRD; residues 1–162) (from UniProt P0DJO8) I155A”, for which the half-maximal effective concentration (EC50) in [3] (parent: 220 ± 81) was determined as 1170 nM.
On to “MogR DBD protein (MogRD; residues 1–162) (from UniProt P0DJO8) K122A”, for which the EC50 in data set [3] (parent: 167 ± 18) amounted to 160 nM.
With “MogR DBD protein (MogRD; residues 1–162) (from UniProt P0DJO8) K152A”, the EC50 in [3] (parent: 220 ± 81) was 346 nM.
On to “MogR DBD protein (MogRD; residues 1–162) (from UniProt P0DJO8) N118A”, for which, in [3] (parent: 167 ± 18), the EC50 came to 185 nM.
For the molecule “MogR DBD protein (MogRD; residues 1–162) (from UniProt P0DJO8) N154A”, the EC50 in [3] (parent: 220 ± 81) amounted to 1230 nM.
With “MogR DBD protein (MogRD; residues 1–162) (from UniProt P0DJO8) Q117A”, the EC50 in [3] (parent: 167 ± 18) amounted to 182 nM.
On to “MogR DBD protein (MogRD; residues 1–162) (from UniProt P0DJO8) S114A”, for which the half-maximal effective concentration (EC50) in data set [3] (parent: 167 ± 18) stood at 139 nM.
On to “MogR DBD protein (MogRD; residues 1–162) (from UniProt P0DJO8) S114A; Q117A; N118A; K122A”, for which the concentration for a half-maximal effect (EC50) in data set [3] (parent: 167 ± 18) amounted to 342 nM.
On the same count and under the same terms, to “MogR DBD protein (MogRD; residues 1–162) (from UniProt P0DJO8) T112A” belongs 165 nM.
For “MogR DBD protein (MogRD; residues 1–162) (from UniProt P0DJO8) T153A”, in [3] (parent: 220 ± 81), the concentration giving a half-maximal response (EC50) stood at 518 nM.

B1: N-terminally truncated GmaR protein (GmaR_(141-637); residues 141–637) (domain or fragment)
chain: RGVIHEQLEAIDKRPIAAGVAEVKIYHYGYMSEIVEKQDKSDRNLRLLEKEVKNNKNSGFVHFNIGQEMNRLGNKKEALKEFSEAFRLRDHNHYIWAKLSAYHIAELLEQEKRYDESLAIIEEARVIWPNVPEFPLKKANILYVNHQLEDAKEIYQSLLENAAIDYQPIVLYEATNFMPHKMLGTIYLEEKDYTRAMTHFSKAYAENSSDYGVMFQMIMLLSKFHQPKEIFAFMERHHFISSTETGLRLLSMTTQQGYAELSELIVQSLTDVYPPVAEATEVKIATIRNVFPVISESAILFGIKEELIDAADLCLWHYENPQLPIENVMKNSDVGDIYDFIFENGPRISKKRYLFVLERAIALGKGEFADYLLALRNVYHDSINSHIADLFFQYDFADIALDFYNIVDADEVTKQGYINLINYLVDADVLDEALAIAERGIDNFSTDFRFYLWAIKIDTENRANRISEAMDEFPNNRYLAKLLDEVTMLQDTVTNNR
What is called Kd is the constant that tells how readily two partners part at equilibrium. Low readings indicate a tighter complex, high ones a looser complex. With B1, the dissociation constant (Kd) in data set [4] was roughly 22 nM.

B2: MogR DBD protein (MogRD; residues 1–162) (domain or fragment)
chain: MPKSEIRKLLQEIKKQVDNPGNSSTTEIKKMASEAGIDEQTAEEIYHLLTEFYQAVEEHGGIEKYMHSNISWLKIELELLSACYQIAILEDMKVLDISEMLSLNDLRIFPKTPSQLQNTYYKLKKELIQVEDIPKNKPGRKRKTQKNTKKEKTNIFGKVVPA
The stoichiometry N is the number of molecules, sites or subunits per partner or assembly. In the case of B2, the stoichiometry N in [5] and in [6] was 1 throughout. For the same molecule, in [7], the Kd is 13 nM.

B3: operator dsDNA, unlabeled (dsDNA)
DNA 1: ATTTGATTTTTTAAAAAAATGAAGA
DNA 2: TCTTCATTTTTTTAAAAAATCAAAT
For the molecule B3, the binding result with MogRD Site1-Ala [8] was “binds”; with MogR1-151 [9], “binds”; in data set [10], “binds”; with MogRD SiteMIG-Ala it was “no binding”.

B4: operator dsDNA, fluorescein-labeled (dsDNA)
DNA 1: ATTTGATTTTTTAAAAAAATGAAGA
DNA 2: TCTTCATTTTTTTAAAAAATCAAAT
Regarding B4, the binding result (in data set [11]; with MogR1-151 [12]; with MogRD Site1-Ala [13]) was “binds” each time.
